Measurements: PMC8517284

Target: FLAG-tagged CysD3 (DIO3, NM_001362, selenocysteine codon replaced with cysteine) (UniProt P55073)
Assay: co-IP

FLAG-tagged CysD3 (DIO3, NM_001362, selenocysteine codon replaced with cysteine), sequence (P55073 whole entry): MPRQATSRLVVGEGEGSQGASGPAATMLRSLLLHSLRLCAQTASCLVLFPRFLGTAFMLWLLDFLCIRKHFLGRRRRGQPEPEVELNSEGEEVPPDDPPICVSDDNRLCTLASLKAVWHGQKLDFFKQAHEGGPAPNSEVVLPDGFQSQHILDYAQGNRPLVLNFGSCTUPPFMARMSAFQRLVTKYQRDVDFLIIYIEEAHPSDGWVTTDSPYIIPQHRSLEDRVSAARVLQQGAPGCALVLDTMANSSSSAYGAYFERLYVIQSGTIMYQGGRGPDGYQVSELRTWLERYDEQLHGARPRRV
Myc-tagged β3 integrin (NM_000212.2), sequence (P05106 27-788): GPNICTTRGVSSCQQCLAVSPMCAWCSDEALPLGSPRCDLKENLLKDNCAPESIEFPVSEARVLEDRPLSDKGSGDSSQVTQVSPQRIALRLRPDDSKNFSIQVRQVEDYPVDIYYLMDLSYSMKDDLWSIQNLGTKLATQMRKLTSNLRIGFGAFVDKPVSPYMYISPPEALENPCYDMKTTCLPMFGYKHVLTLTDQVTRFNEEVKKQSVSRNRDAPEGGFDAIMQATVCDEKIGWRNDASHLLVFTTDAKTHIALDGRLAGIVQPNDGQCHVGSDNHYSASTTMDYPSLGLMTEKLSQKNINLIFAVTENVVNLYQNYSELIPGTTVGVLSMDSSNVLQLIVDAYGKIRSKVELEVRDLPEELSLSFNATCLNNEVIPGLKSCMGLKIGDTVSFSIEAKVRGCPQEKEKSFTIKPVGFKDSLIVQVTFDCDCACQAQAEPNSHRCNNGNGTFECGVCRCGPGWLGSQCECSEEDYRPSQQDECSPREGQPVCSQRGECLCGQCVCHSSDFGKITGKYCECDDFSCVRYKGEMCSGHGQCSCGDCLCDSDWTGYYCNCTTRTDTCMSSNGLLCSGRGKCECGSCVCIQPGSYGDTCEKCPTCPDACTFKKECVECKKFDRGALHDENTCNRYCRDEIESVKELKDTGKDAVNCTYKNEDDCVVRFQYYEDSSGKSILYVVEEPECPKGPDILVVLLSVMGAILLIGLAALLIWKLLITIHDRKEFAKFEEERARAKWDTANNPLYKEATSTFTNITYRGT

Myc-tagged β3 integrin (NM_000212.2) (from UniProt P05106-1 27-788) (receptor)
fold reduction of the co-immunoprecipitation in the presence of cRGD and Tetrac: > 2 fold
